Laboratory results as given in publication doi:10.1101/560391 (bioRxiv, 2019).
Each block holds one molecule with its values, some of them ahead of it.

Legend:
[1] = target: dCENP-A^C chimera, GFP-LacI fusion (Drosophila) (UniProt Q9V6Q2); experiment: LacI/LacO tethering and co-recruitment in cells
[2] = target: (dCENP-A/dH4) dimer (Drosophila), Q9V6Q2; experiment: SEC-MALS; conditions: remark: other sources report otherwise
SEC-MALS = target: the molecule itself; experiment: SEC-MALS

CAL1 recruitment relative to WT dCENP-A [1]: 60%
Molecule: CAL1-V5 (from UniProt Q9VEN2 1-979) (natural protein)

stoichiometry N [2]: 1
B1: recombinant CAL1(1-160), Q9VEN2 1-160 (domain or fragment)
chain: MANAVVDEETLEAMVYERSKAWSSKMADFASLEDGMEIDVAEFDNLFHGEDEDPDLDDVAKEAVEDNVPDEAKLEMGHINATSVTELTLILCANEDNEAKAEIEEILNQTVPVVEEHKRKWREAGLDRILDTFDEKQIEHHVGRWMRRHNSVYLEASPPK

B2: His-dCENP-C(1264-1411) (domain or fragment)
chain: GPVVFSTPLRDEQEEASTKLMQWLRGVGDAPPSASMSDENASVSSANELIFCQVDGIDYAFYNTKEKAMLGYMRFKPYQKRSMKQAKVHPLKLLVQFGEFNVETLAVGEEKEVHSVLRVGDMIEIDRGTRYSIQNAIDKVSVLMCIRS
stoichiometry N (SEC-MALS): 2
